Assay results as given in PMC7229837, “Molecular architecture of the DNA-binding sites of the P-loop ATPases MipZ and ParA from Caulobacter crescentus”.
Changes are numbered by the printed parent chain.

What was measured:
Settings in all cases: protein: recombinant; tags: C-terminal His6 (pET21a); chain copies: 2; label: Cy3 (5') on strand 1; blunt
[1] = molecular target: T1, MipZ WT (Caulobacter crescentus, UniProt Q9A6C9 1-278); assay: MST; EMSA: 10 mM HEPES/NaOH pH 7.2, 150 mM NaCl, 10 mM MgCl2, 0.05% Tween 20, 0.46 mM ATPgS, room temp; BLI: 50 mM HEPES/NaOH pH 7.2, 50 mM NaCl, 5 mM MgCl2, 0.1 mM
T1 sequence: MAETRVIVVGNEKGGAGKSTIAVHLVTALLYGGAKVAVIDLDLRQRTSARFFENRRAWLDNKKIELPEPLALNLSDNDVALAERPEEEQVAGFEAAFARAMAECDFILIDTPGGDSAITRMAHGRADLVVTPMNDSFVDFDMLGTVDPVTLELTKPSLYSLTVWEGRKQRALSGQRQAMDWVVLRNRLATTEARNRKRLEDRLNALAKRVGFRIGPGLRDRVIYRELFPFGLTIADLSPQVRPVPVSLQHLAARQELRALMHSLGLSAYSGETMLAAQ

[2] = molecular target: T2, MipZ L248A (Caulobacter crescentus, UniProt Q9A6C9 1-278, L248A); assay: as above
T2 sequence: T1 sequence with L248A

[3] = molecular target: T3, MipZ D42A (Caulobacter crescentus, UniProt Q9A6C9 1-278, D42A); assay: as above
T3 sequence: T1 sequence with D42A

[4] = molecular target: T4, MipZ R194A (Caulobacter crescentus, UniProt Q9A6C9 1-278, R194A); assay: MST; hardly any binding; EMSA: 10 mM HEPES/NaOH pH 7.2, 150 mM NaCl, 10 mM MgCl2, 0.05% Tween 20, 0.46 mM ATPgS, room temp; BLI: 50 mM HEPES/NaOH pH 7.2, 50 mM NaCl, 5 mM MgCl2, 0.1 mM
T4 sequence: T1 sequence with R194A

[5] = molecular target: T5, MipZ R198A (Caulobacter crescentus, UniProt Q9A6C9 1-278, R198A); assay: as above
T5 sequence: T1 sequence with R198A

[6] = molecular target: T6, MipZ R221A (Caulobacter crescentus, UniProt Q9A6C9 1-278, R221A); assay: as above
T6 sequence: T1 sequence with R221A

B1: rand-Cy3/rand-rev 26 bp (dsDNA)
DNA 1: GAGGCAGACTAGATCTTCTAGTTCGG
DNA 2: CCGAACTAGAAGATCTAGTCTGCCTC
Kd [1]: < 10 µM
Kd [2]: < 10 µM
Kd [3]: < 10 µM
binding result [4]: no binding
binding result [5]: no binding
binding result [6]: no binding
